Results as given in patent publication US20220169693A1, “Screening Assays, Modulators and Modulation of Intracellular Signalling Mediated by Immunoglobulin Superfamily Cell Adhesion Molecules” (Monash University, priority 2018, published 2022).
One block for each molecule: values may come before it.

Tests used:
AT1R = molecular target: T1, AT1R (Homo sapiens, UniProt P30556); assay: Functional competition: Ang II-induced p65/PCNA expression in AT1R-CHO cells transfected with full length mutant S391A-RAGE; type: cell-based; conditions: for transactivation of the over-expressed cytosolic tail in the presence of S391A-RAGE1-404 (p65): Ang II 1 μM 2 h (FIG. 7A)
T1 construct: Rluc8; expressed in transfected cells; S391A-RAGE transiently transfected
T1 sequence (P30556 1-359): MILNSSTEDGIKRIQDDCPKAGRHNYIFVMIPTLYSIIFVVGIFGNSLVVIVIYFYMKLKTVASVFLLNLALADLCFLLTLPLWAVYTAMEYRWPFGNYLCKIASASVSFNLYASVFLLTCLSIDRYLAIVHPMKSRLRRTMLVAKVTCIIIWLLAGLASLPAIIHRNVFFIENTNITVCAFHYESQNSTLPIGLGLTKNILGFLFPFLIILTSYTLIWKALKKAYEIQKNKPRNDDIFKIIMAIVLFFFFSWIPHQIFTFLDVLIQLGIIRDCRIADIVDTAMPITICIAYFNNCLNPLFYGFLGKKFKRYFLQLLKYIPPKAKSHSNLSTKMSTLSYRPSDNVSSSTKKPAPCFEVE
Procedure: Adult retinal pigment epithelial (ARPE) cells were cultured in Dulbecco's modified Eagle's medium (DMEM)/F12 endothelial cell growth supplement (ECGS) supplemented media. Chinese Hamster Ovary (CHO) cells were cultured using F12 media (10% FCS with 2 mM glutamine). Human microvascular endothelial cells (HMEC) were cultured in MCDB 131 medium (10% FCS with 10 mM glutamine, EGF and hydrocortisone).
100 ng of AT1R-Rluc8 construct was transfected into CHO cells using Lipofectamine 2000 (Thermo). Stable transfectants were selected using G418. AT1R-CHO were then transiently transfected with the IgSF CAM and/or RAGE constructs using Lipofectamine 2000 (Invitrogen) and incubated for 16h.
After 2 hours of exposure to Ang II (1 μM) cells were placed in Trizol, mRNA extracted and cDNA synthesized. Changes in the gene expression of the NFκB subunit, p65 (RelA) or NFκB-activated target genes (e.g ICAM-1) were estimated by quantitative real-time RT-PCR, performed using the TaqMan system based on real-time detection of accumulated fluorescence (ABI Prism 7700, Perkin-Elmer Inc, PE Biosystems, Foster City, Calif., USA). Gene expression was normalized to 18S mRNA and reported as fold change compared to the level of expression in untreated control mice/cells, which were given an arbitrary value of 1.

[1] = molecular target: T2, Rluc8-labelled CADM4 (CADM4/Rluc8) (UniProt Q8NFZ8 21-388); assay: BRET saturation assay (FIG. 12D)
T2 construct: whole, on cells; not shown: Rluc8, a variant of Renilla luciferase
T2 sequence (looked up): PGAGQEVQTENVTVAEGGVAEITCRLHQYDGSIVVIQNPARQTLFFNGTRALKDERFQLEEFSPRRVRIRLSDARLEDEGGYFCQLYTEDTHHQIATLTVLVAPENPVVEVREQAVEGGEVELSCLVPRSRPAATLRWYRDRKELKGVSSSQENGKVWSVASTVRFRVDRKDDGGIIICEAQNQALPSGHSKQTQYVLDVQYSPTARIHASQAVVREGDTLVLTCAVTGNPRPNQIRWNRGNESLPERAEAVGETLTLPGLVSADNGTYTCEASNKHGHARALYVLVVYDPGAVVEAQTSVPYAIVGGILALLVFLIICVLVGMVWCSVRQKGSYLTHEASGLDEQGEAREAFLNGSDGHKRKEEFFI
Procedure: (§1) The BRET ratio was calculated by subtracting the ratio of ‘acceptor emission’ over ‘donor emission’ for a cell sample expressing Rluc8-tagged protein alone from the same ratio for a cell sample expressing both Rluc8 and Venus-tagged proteins. Alternatively, the ligand-induced BRET signal was calculated by subtracting the ratio of ‘acceptor emission’ over ‘donor emission’ for a vehicle-treated cell sample from the same ratio for a second aliquot of the same cells treated with agonist.
(§2) For the BRET kinetic assays, the final pre-treatment reading is presented at the zero time point (time of ligand/vehicle addition). For the BRET saturation assays, fluorescence after light excitation was measured on an EnVision 2102 multi-label plate reader (PerkinElmer, Glen Waverley, Victoria, Australia) using a 485/14 excitation filter, 535/25 emission filter and D505 mirror. The fluorescence/luminescence ratio was generated by dividing the fluorescence values in arbitrary units (obtained with the EnVision) by the luminescence values also in arbitrary units (obtained as part of the BRET assay).

[2] = molecular target: T3, untagged RAGE (RAGE cDNA co-transfected) (UniProt Q15109 23-404); assay: BRET saturation assay, competition with EpCAM/Rluc8 (FIG. 11D)
T3 construct: whole, on cells
Procedure: as §1, §2

RAGE/Rluc8 = molecular target: T4, RAGE/Rluc8 (UniProt Q15109 23-404); assay: BRET saturation assay (FIGS. 13A, 13D)
T4 construct: whole, on cells; not shown: Rluc8, a variant of Renilla luciferase
Procedure: as §1, §2

[3] = molecular target: T5, Venus-labelled CADM4 (CADM4/Venus) (UniProt Q8NFZ8 21-388); assay: Receptor-HIT BRET: CADM4/Venus + β-arrestin2/Rluc8 ± untagged AT1, after AngII
T5 construct: whole, on cells; not shown: Venus, a variant of green fluorescent protein
T5 sequence (looked up): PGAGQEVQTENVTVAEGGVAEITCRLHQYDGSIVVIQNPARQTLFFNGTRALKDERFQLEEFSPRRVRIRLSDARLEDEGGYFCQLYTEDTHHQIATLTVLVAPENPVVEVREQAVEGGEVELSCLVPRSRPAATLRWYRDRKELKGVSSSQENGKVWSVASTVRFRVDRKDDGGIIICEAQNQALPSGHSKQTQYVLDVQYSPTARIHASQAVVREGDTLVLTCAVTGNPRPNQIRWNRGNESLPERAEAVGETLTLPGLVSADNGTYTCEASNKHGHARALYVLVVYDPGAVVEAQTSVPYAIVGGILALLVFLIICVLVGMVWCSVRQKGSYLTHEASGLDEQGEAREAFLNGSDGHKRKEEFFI
Procedure: as §1
(§3) GPCRs untagged with respect to the BRET system were then co-expressed in the HEK293FT cells, or the cells were transfected with pcDNA3 as a control. […] A ligand-induced BRET signal was indicative of recruitment of the BRET-tagged β-arrestin2 proximal to the BRET-tagged CAM, thereby indicating close proximity between the CAM and the activated GPCR.

human ALCAM/Rluc8 = molecular target: T6, human ALCAM/Rluc8 (human, UniProt Q13740 28-583); assay: Receptor-HIT BRET: ALCAM/Rluc8 + β-arrestin2/Venus ± untagged AT1, after AngII
T6 construct: also called ALCAM/Rluc8 (human ALCAM); not shown: Rluc8, a variant of Renilla luciferase
T6 sequence: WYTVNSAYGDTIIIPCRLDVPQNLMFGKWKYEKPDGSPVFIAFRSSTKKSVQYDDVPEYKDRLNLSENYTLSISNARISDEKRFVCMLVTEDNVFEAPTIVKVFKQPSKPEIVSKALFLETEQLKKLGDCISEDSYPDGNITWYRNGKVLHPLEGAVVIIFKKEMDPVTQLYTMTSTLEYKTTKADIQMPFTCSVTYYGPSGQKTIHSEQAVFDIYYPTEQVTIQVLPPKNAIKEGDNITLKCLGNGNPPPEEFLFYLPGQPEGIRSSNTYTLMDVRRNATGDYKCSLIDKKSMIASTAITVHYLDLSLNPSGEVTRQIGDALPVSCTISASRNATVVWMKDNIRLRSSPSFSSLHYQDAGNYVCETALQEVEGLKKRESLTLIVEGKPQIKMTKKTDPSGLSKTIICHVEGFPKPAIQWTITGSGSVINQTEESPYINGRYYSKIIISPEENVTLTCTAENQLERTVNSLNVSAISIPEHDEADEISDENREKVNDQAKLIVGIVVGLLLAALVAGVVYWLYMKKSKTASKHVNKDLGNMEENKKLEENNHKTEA
Procedure: as §1, §3

mouse ALCAM/Rluc8 = molecular target: T7, mouse ALCAM/Rluc8 (mouse, UniProt Q61490 28-583); assay: as above
T7 construct: also called ALCAM/Rluc8 (mouse ALCAM); not shown: Rluc8, a variant of Renilla luciferase
T7 sequence: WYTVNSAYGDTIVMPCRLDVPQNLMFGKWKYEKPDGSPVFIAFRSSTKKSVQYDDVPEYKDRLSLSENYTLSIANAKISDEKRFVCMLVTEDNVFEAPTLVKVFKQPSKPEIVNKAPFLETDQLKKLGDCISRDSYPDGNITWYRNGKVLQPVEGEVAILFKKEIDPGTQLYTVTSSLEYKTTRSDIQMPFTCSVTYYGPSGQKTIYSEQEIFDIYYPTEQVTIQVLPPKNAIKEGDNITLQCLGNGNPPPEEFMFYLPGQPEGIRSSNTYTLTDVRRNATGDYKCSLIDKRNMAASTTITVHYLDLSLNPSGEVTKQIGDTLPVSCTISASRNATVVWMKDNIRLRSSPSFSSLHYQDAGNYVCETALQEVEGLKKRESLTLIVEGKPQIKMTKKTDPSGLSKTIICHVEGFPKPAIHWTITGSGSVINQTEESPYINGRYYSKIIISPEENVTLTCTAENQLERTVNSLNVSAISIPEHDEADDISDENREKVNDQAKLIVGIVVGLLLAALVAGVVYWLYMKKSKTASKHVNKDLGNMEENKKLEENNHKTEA
Procedure: as §1, §3

[4] = molecular target: T2, Rluc8-labelled CADM4 (CADM4/Rluc8); assay: Receptor-HIT BRET: CADM4/Rluc8 + β-arrestin2/Venus ± untagged AT1, after AngII
Procedure: as §1, §3

[5] = molecular target: T8, Venus-labelled mouse ALCAM (ALCAM/Venus) (mouse, UniProt Q61490 28-583); assay: Receptor-HIT BRET: ALCAM/Venus + β-arrestin2/Rluc8 ± untagged AT1, after AngII
T8 construct: also called mouse ALCAM/Venus; not shown: Venus, a variant of green fluorescent protein
T8 sequence: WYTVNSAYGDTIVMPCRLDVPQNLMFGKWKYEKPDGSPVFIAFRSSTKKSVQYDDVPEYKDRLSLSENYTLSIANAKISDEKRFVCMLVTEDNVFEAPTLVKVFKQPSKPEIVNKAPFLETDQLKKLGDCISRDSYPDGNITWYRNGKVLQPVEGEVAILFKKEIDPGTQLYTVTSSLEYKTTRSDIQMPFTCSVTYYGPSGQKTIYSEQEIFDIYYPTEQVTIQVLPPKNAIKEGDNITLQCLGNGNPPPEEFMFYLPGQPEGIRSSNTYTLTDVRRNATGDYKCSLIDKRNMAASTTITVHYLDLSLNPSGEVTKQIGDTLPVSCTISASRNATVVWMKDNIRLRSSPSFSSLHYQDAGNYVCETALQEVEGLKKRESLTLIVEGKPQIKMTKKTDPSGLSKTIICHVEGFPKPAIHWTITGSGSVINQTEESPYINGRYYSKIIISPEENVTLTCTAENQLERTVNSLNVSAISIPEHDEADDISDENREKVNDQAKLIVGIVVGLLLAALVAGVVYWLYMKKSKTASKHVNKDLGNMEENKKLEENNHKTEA
Procedure: as §1, §3

T3 sequence (Q15109 23-404): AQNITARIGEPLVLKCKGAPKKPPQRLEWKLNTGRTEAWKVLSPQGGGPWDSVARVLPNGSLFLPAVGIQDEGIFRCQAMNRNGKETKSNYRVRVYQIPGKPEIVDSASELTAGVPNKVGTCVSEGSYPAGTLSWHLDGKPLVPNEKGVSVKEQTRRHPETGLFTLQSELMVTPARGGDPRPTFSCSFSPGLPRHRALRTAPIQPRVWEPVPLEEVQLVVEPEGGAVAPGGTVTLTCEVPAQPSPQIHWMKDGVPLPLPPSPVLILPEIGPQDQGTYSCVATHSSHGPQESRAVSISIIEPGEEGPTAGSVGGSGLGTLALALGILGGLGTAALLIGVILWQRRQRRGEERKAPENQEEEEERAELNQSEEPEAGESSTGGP
T4 sequence (Q15109 23-404): as above

Molecule: MKKSKTASKHVNKDLGNMEENKKLEENNHKTEA (Synthetic peptide - Truncated amino acid sequence of human ALCAM protein corresponding to residues 551 to 583 (corresponding to the cytosolic tail of ALCAM)) [ALCAM551-583]
- transactivation of the over-expressed cytosolic tail in the presence of S391A-RAGE1-404 (p65) (AT1R; AT1R-CHO cells): able to overcome inhibition of transactivation

- transactivation by AT1R as indicated by PCNA expression after transfection of the mutant (AT1R; Ang II 1 μM 2 h, vs pCIneo (FIG. 7B)): unable to be transactivated
Molecule: S391A-RAGE1-404: full length human mutant S391A-RAGE
- ability of Ang II to induce p65-NFκB expression after transfection of the mutant (AT1R; AT1R-CHO cells, Ang II 1 μM 2 h, vs pCIneo (FIG. 7A)): fails to confer the ability of Ang II to induce expression

Molecule: MSVRQKGSYLTHEASGLDEQGEAREAFLNGSDGHKRKEEFFI [CADM4336-388]
- transactivation of the over-expressed cytosolic tail in the presence of S391A-RAGE1-404 (p65) (AT1R; AT1R-CHO cells): able to overcome inhibition of transactivation

- binding result [1]: binds
- binding result [2]: binds
- binding result (RAGE/Rluc8): binds
B1: Venus-tagged Angiotensin II receptor 1 (AT1/Venus) (receptor, UniProt P30556 1-359, looked up)
chain: MILNSSTEDGIKRIQDDCPKAGRHNYIFVMIPTLYSIIFVVGIFGNSLVVIVIYFYMKLKTVASVFLLNLALADLCFLLTLPLWAVYTAMEYRWPFGNYLCKIASASVSFNLYASVFLLTCLSIDRYLAIVHPMKSRLRRTMLVAKVTCIIIWLLAGLASLPAIIHRNVFFIENTNITVCAFHYESQNSTLPIGLGLTKNILGFLFPFLIILTSYTLIWKALKKAYEIQKNKPRNDDIFKIIMAIVLFFFFSWIPHQIFTFLDVLIQLGIIRDCRIADIVDTAMPITICIAYFNNCLNPLFYGFLGKKFKRYFLQLLKYIPPKAKSHSNLSTKMSTLSYRPSDNVSSSTKKPAPCFEVE
notes: whole, on cells; not shown: Venus, a variant of green fluorescent protein

- binding result [3]: binds
- binding result (human ALCAM/Rluc8): binds
- binding result (mouse ALCAM/Rluc8): binds
- binding result [4]: binds
- binding result [5]: binds
B2: AT1 (untagged, co-expressed in HEK293FT cells) (receptor, UniProt P30556 1-359, looked up)
chain: MILNSSTEDGIKRIQDDCPKAGRHNYIFVMIPTLYSIIFVVGIFGNSLVVIVIYFYMKLKTVASVFLLNLALADLCFLLTLPLWAVYTAMEYRWPFGNYLCKIASASVSFNLYASVFLLTCLSIDRYLAIVHPMKSRLRRTMLVAKVTCIIIWLLAGLASLPAIIHRNVFFIENTNITVCAFHYESQNSTLPIGLGLTKNILGFLFPFLIILTSYTLIWKALKKAYEIQKNKPRNDDIFKIIMAIVLFFFFSWIPHQIFTFLDVLIQLGIIRDCRIADIVDTAMPITICIAYFNNCLNPLFYGFLGKKFKRYFLQLLKYIPPKAKSHSNLSTKMSTLSYRPSDNVSSSTKKPAPCFEVE
notes: whole, on cells; Untagged with respect to BRET (Receptor-HIT assays); also called Angiotensin II receptor 1
